This is an account of results in patent US20130022605A1.

The target in this experiment is hen egg lysozyme (hen) (UniProt P00698). As to the kind of experiment: ELISA on HEL at 3 mg/ml, detection with 9e10 and anti mouse IgG-HRP. For orientation: In an ELISA, binding on a coated surface is turned into a signal by an enzyme label.
hen egg lysozyme (hen), sequence (P00698 19-147): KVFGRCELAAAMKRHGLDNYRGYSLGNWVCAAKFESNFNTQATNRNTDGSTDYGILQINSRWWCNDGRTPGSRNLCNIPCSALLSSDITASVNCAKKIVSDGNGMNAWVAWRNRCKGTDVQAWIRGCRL

B1: VH Cκ chain expressed alone (TAR2-5 Cκ) (protein, not shown: small tags and cut ends)
chain: EVQLLESGGGLVQPGGSLRLSCAASGFTFDLYNMFWVRQAPGKGLEWVSFISQTGRLTWYADSVKGRFTISRDNSKNTLYLQMNSLRAEDTAVYYCAKTLEDFDYWGQGTLVTVSS
B1 returned an ELISA signal (background) of 0.069.
